Target: porcine CSF1 fused to an antibody Fc region (pCSF1-Fc), produced in egg white of transgenic hens (porcine)
Assay: non-reducing SDS-PAGE; pCSF1-Fc purified from egg white (MabSelect SuRe, SEC), non-reducing SDS-PAGE stained with Instant Blue

- stoichiometry N: 2
Substance: porcine CSF1 fused to an antibody Fc region (pCSF1-Fc), produced in egg white of transgenic hens (Fc fusion)

— article PMC6311007
